How the values were obtained:
[1] = molecular target: full-length recombinant bank vole prion protein with methionine at residue 109 (rBVPrP-109M) (bank vole (Myodes glareolus), UniProt Q8VHV5 23-231); assay: SPR; settings: both partners purified
[2] = molecular target: full-length recombinant bank vole prion protein with isoleucine at residue 109 (rBVPrP-109I) (bank vole (Myodes glareolus), UniProt Q8VHV5 23-231, 109I); assay: SPR; settings: both partners purified

B1: Quiescin sulfhydryl oxidase (QSOX) (enzyme)
chain: APRSALYSPSDPLTLLQADTVRGAVLGSRSAWAVEFFASWCGHCIAFAPTWKALAEDVKAWRPALYLAALDCAEETNSAVCRDFNIPGFPTVRFFKAFTKNGSGAVFPVAGADVQTLRERLIDALESHHDTWPPACPPLEPAKLEEIDGFFARNNEEYLALIFEKGGSYLGREVALDLSQHKGVAVRRVLNTEANVVRKFGVTDFPSCYLLFRNGSVSRVPVLMESRSFYTAYLQRLSGLTREAAQTTVAPTTANKIAPTVWKLADRSKIYMADLESALHYILRIEVGRFPVLEGQRLVALKKFVAVLAKYFPGRPLVQNFLHSVNEWLKRQKRNKIPYSFFKTALDDRKEGAVLAKKVNWIGCQGSEPHFRGFPCSLWVLFHFLTVQAARQNVDHSQEAAKAKEVLPAIRGYVHYFFGCRDCASHFEQMAAASMHRVGSPNAAVLWLWSSHNRVNARLAGAPSEDPQFPKVQWPPRELCSACHNERLDVPVWDVEATLNFLKAHFSPSNIILDFPAAGSAARRDVQNVAAAPELAMGALELESRNSTLDPGKPEMMKSPTNTTPHVPAEGPELI
With B1 the Kd [1] was 23 nM and the Kd [2] was 11 nM.

Reference: paper PMC5628483, “Soluble polymorphic bank vole prion proteins induced by co-expression of quiescin sulfhydryl oxidase in E. coli and their aggregation behaviors” (Microbial Cell Factories, 2017)
